This test has as its target T1, human Dual Ig domain containing cell adhesion molecule (DICAM) (human, UniProt Q9BRK3 20-442).
T1 construct: Assayed as endogenous DICAM of THP-1 cells and TH17 lymphocytes, and as human DICAM from vector pCMV6-neo-DICAM in NIH3T3 and NS0 cells; It stood on the cell surface in flow cytometry and in cell lysate in Western blot; also called limitrin; Matrix-remodeling-associated protein 8
T1 sequence: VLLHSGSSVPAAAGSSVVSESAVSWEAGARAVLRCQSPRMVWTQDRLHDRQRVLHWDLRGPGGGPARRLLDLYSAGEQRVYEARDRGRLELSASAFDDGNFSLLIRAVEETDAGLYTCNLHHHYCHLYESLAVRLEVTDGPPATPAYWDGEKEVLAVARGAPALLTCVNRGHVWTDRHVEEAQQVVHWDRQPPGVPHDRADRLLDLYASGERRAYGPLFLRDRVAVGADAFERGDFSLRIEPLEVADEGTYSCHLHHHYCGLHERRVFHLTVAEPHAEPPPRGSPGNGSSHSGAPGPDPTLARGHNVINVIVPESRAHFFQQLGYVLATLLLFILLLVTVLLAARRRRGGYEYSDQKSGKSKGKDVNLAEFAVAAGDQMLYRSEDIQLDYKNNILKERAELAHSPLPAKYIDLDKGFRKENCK
The test can be described thus: Western blot (Table III). The protocol: THP-1 cells express DICAM as determined by qPCR and confirmed by WB (see Jung et al., Journal of Bone and Mineral Research, Vol. 27, No. 9, pp 2024-2034, 2012). THP-1 cell lysate (30 μg) were loaded on 12% SDS-PAGE gel and electrophoresed for 90 min at 100V and transferred to PVDF membranes. Hybridoma from clone 3C2, 2C11, 2H12, 9E9 and 1B2 (N-terminal DICAM epitope 57-71) or from clone 7F8, 1D9, 4B8 and 1D4 (C-terminal DICAM epitope 372-385) were incubated at 4° C. (50 μg/ml) for 12 h. Secondary antibody is goat anti-mouse pan-IgG coupled to HRP (1/2000 dilution). Actin is shown as a loading control. N=4
Characterization of anti-DICAM antibodies by Western blot THP-1 and NIH3T3 cells transfected with human DICAM-encoding vector (pCMV6-neo) or with empty vector (pCMV6-neo) cell lysate ([…]) were loaded on 12% SDS-PAGE gel and electrophoresed for 90 min at 100V and transferred to PVDF membranes. […] N=4 by standard SDS-PAGE and immunoblots were analyzed with anti-DICAM (Goat; 1:100 dilution; sc-163102; Santa Cruz Biotechnology®); horseradish peroxidase-conjugated anti-goat (1:1,000 dilution; P00448; DakoCytomation®) and the ECL system (Amersham Biosciences®) were used to detect specific binding, and anti-actin (1:5,000 dilution; AC-15; MP Biomedicals®) served as a loading control. […]

B1: anti-DICAM monoclonal antibody clone 9E9 (antibody, mouse IgG1, V domains shown)
VH: EVQLVESGGGLVKPGGSLKLSCAASGFTFISYAMSWVRQTPEKRLEWVATISSGGSYTYYPHSVKGRFTISRDNARNTLYLQMSSLRSEDTAMYYCARLDGPSYAMDYWGQGTSVTVS
VL: QIVLTQSPAIMSAFLGEEITLTCSASSSVSYMHWYQQKSGTSPKLLIYSTSNLASGVPSRFSGSGSGTFYSLTISSVEAEDAADYYCHQWSSYRTFGGGTKLEIKR
notes: Mouse hybridoma antibody, murine IgG1 heavy chain and kappa light chain; also called mAb clone 9E9; hybridoma clone 9E9
On to B1, for which the binding result is on record as “binds”.

These data come from patent publication US20180057590A1 (VAL CHUM LIMITED PARTNERSHIP, published 2018).
